In patent publication US20250017964A1, “ENGINEERING OR INDUCING PDGF AND/OR PDGFR SIGNALING TO ENHANCE NK CELL THERAPY” (City of Hope, priority 2021, published 2025):

Tests used:
[1] = system: murine NK cells; test: PDGFRβ expression in murine splenic NK cells, flow cytometry; assay type: cell-based, mouse; conditions: splenic NK cells of C57BL/6 mice, mouse cytokines 10 ng/ml, 24 h
Experimental: (§1) FIGS. 7A-7F. […] Data shown are representative histograms and mean fluorescence intensity (MFI) of PDGFRα. […] Expression levels of PDGFRβ were examined by flow cytometry (n=6). […] Data shown are the percentages of PDGFRβ^+ NK cells among total NK cells (n=5). […] Data shown are representative histograms with MFI of PDGFRβ expression. (F) Expression levels of PDGFRβ on NK cells from IL-15 transgenic (Tg) mice were determined by flow cytometry. Data shown are representative histograms. Data represent three independent experiments.
Mouse NK cells were isolated from the spleen of C57BL/6J or IL-15 transgenic mice, using the EasySep Mouse NK Cell Isolation Kit ([…] Technologies) as previously described (11).
Cells were stained with the indicated cell-surface markers and/or fixed/permeabilized using a Fixation/Permeabilization Kit (eBioscience). For intracellular staining of IFN-γ and PDGF-D, 5 μg/ml Brefeldin A (BioLegend) was added for 4 h before cell harvest. Intracellular staining of Ki67 was performed by fixing and permeabilizing with the Foxp3/Transcription Factor Staining Kit (eBioscience). […] Data were analyzed using NovoExpress software (Agilent Technologies).

[2] = system: PDGFRβ expression in human NK cells; test: Cytokine-induced PDGFRβ expression in purified human NK cells, flow cytometry; assay type: cell-based; conditions: cytokine 10 ng/ml, 24 h; IL-15 effect dose- and time-dependent
Excerpt: Data shown are the percentages of PDGFRβ^+ NK cells among total NK cells (n=5). […] Bar=20 μm. […] Data represent three independent experiments. Data shown are means SD.
as §1
NK cells were cultured in RPMI 1640 with 10% heat-inactivated FBS (Gibco) at 37° C. in a 5% CO2 humidified incubator. For NK cell transduction, PDGFRB cDNA ORF clone (Cat: HG10514-G) was purchased from Sino Biological and cloned into pCDH-CMV-MCS-EF1-copGFP lentivirus vector (System Biosciences). To produce lentivirus, we transfected the lentiviral transfer vector DNA, together with psPAX2 packaging (Addgene) and pMD2.G envelope plasmid DNA (Addgene), into HEK293T cells; using a polyethyenimine (PEI) transfection protocol (Polysciences). Concentrated lentivirus was added to primary NK cells cultured in RPMI 1640 medium supplemented with 10% FCS and 10 jig/mL polybrene with 2,000×g centrifugation for 2 h. […]

B1: IL-12: recombinant human IL-12 p70 (200-12); recombinant murine IL-12 in the mouse NK cell test (protein, UniProt P29459 23-219; P29460 23-328, looked up)
Interleukin-12 subunit alpha: RNLPVATPDPGMFPCLHHSQNLLRAVSNMLQKARQTLEFYPCTSEEIDHEDITKDKTSTVEACLPLELTKNESCLNSRETSFITNGSCLASRKTSFMMALCLSSIYEDLKMYQVEFKTMNAKLLMDPKRQIFLDQNMLAVIDELMQALNFNSETVPQKSSLEEPDFYKTKIKLCILLHAFRIRAVTIDRVMSYLNAS
Interleukin-12 subunit beta: IWELKKDVYVVELDWYPDAPGEMVVLTCDTPEEDGITWTLDQSSEVLGSGKTLTIQVKEFGDAGQYTCHKGGEVLSHSLLLLHKKEDGIWSTDILKDQKEPKNKTFLRCEAKNYSGRFTCWWLTTISTDLTFSVKSSRGSSDPQGVTCGAATLSAERVRGDNKEYEYSVECQEDSACPAAEESLPIEVMVDAVHKLKYENYTSSFFIRDIIKPDPPKNLQLKPLKNSRQVEVSWEYPDTWSTPHSYFSLTFCVQVQGKSKREKKDRVFTDKTSATVICRKNASISVRAQDRYYSSSWSEWASVPCS
modifications: p70 heterodimer
notes: recombinant human IL-12 p70 (200-12); recombinant murine IL-12 in the mouse NK cell test
- PDGFRβ expression in murine NK cells [1]: did not express PDGFRβ
- PDGFRβ expression [2]: ineffective
